Test results published in publication PMC5827136.
pKd: −log10 of the molar value.

Target: Histone H4 (UniProt P62805)
Test: SPR

Substance: protein SIC (Streptococcal Inhibitor of Complement) (natural protein)
- pKd: 7.75
- koff: 0.000591 s⁻¹
- kon: 33500 M⁻¹ s⁻¹
